Experimental data reported in paper doi:10.1101/2020.08.10.245050, “Crystal structures of Arabidopsis and Physcomitrella CR4 reveal the molecular architecture of CRINKLY4 receptor kinases” (bioRxiv, 2020).
Read-outs that look alike come from different tables or passages of the source. Where no end group is shown, it is not given here. [ ]: non-standard residue; d: D form. Hyp = O=C(O)[C@@H]1C[C@@H](O)CN1

Assays:
[1] = molecular target: T1, biotinylated LRR ectodomain of BARELY ANY MERISTEM 1 (BAM1, residues 20 - 637) with Avi-tag (Arabidopsis (printed as AtBAM1), UniProt O49545 20-637, biotin (BirA biotinylation))
T1 chain: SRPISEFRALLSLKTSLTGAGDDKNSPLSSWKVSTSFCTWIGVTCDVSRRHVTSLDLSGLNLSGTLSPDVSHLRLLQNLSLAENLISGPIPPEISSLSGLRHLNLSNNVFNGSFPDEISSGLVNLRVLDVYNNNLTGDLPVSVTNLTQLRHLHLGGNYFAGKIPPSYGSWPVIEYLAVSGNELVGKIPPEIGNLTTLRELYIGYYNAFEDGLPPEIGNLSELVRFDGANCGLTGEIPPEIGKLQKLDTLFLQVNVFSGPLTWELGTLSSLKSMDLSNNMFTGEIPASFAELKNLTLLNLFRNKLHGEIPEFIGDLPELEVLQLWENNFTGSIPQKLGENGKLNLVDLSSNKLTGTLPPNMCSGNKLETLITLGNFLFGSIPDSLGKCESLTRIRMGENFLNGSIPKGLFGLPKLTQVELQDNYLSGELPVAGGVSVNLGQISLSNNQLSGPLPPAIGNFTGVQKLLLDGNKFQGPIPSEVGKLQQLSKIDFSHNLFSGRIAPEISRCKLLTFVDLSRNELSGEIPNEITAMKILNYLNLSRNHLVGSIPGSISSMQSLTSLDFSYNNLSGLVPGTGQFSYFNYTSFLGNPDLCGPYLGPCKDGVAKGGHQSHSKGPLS

[2] = molecular target: T1, biotinylated LRR ectodomain of BARELY …
[3] = molecular target: T2, biotinylated LRR ectodomain of BARELY ANY MERISTEM 1 (BAM1, residues 20 - 637) with Avi-tag (Arabidopsis (printed as AtBAM1), UniProt O49545 20-637, biotin (BirA biotinylation)); assay: grating-coupled interferometry (GCI); Creoptix WAVE, 4PCP chip; biotinylated ectodomain captured on immobilised streptavidin; CLE40 peptide as analyte, 1:2 dilution series from 10 µM; 25 °C; 20 mM citrate pH 5.0, 250 mM NaCl, 0.01 % Tween 20; mass transport binding model; triplicates; settings: both partners purified
T2 construct: BAM1 (AtBAM1) LRR ectodomain, residues 20-637, synthetic gene (Geneart), secreted with the Drosophila melanogaster BiP signal peptide; The sentence on the vector most likely means that the non-cleavable Avi-tag is C-terminal as well; also called AtBAM1^LRR; BAM1^LRR; source: biotinylated with BirA; not shown: StrepII, C-terminal, cleaved; 10x His, C-terminal, cleaved
T2 sequence (looked up): T1 chain

koff [1]: 2.4 s⁻¹
Kd [2]: 697 nM
Kd [3]: ~1000 nM
B1: CLAVATA3/ESR-RELATED 40 (CLE40) peptide (peptide)
peptide: RQV[Hyp]TGSDPLHH
notes: the P at position 4 is hydroxyproline; also called synthetic CLE40 peptide; source: synthetic peptide (Peptide Specialty Labs GmbH)
